These results are taken from US20130289253A1.

In assay [1] the target is control (Fig. 49).
The target of assay [2] is control (Fig. 49). The source holds these as a separate data set.

Values joined by “and” are separate entries in the source; they are usually repeats but may differ in a detail not shown here. Equal entries are not always repeated. Where two headings read alike, the source gives them in different places.

Consider “DR4 2×His DTB-HA306-318 complexes (DTB-streptactin purified monomers) (from UniProt P01903 26-216) (peptide-MHC)”, for which the % of cells in Q2 (multimer+ CD4+) was 0.535% and 0.421% with control (Fig. 49) [1]; 0.985% and 0.623% in the assay with control (Fig. 49) [2].
